Experiment [1] deals with YqiC of Salmonella enterica serovar Typhimurium (Salmonella enterica serovar Typhimurium ATCC 14028). As to the kind of experiment: SEC-MALS; static light scattering (90°) and refractive index coupled to a Superdex 75 column; eluted with PBS (methods) or 50 mM Tris-HCl, 150 mM NaCl pH 8; calibrated with BSA; single homogeneous peak.
For experiment [2] the target is unchanged. As to the kind of experiment: cross-linking; purified YqiC with ethylene glycol bis(succinimidylsuccinate) (EGS) at 0.5, 1.0 and 5.0 mM, 30 min at room temperature in phosphate-buffered saline, stopped with 50 mM Tris-HCl pH 8.0; products on 15% SDS-PAGE, Coomassie staining.

This note sets out measurements from publication PMC3107778.

Take “YqiC of Salmonella enterica serovar Typhimurium (from UniProt A0A2X4T3G4 1-98) (natural protein)”: the stoichiometry N in experiment [1] and in experiment [2] was 3 throughout.
